Results published in US20140127211A1 (Pfizer, published 2014).

Columns and labels:
[1] = target: T1, full-length human Notch3 expressed on the cell surface (human, UniProt Q9UM47 40-2321); test: cell-based or functional assay
[2] = target: T1, full-length human Notch3 expressed on …; test: cell-based or functional assay; remark: listed apart in the source
[3] = target: T1, full-length human Notch3 expressed on …; test: cell-based ELISA, HCC2429 cells; SD 0.034
Experimental: (§1) On the day of the ELISA, culture media was removed from wells and serially diluted (1:3 in DPBS with calcium chloride and magnesium chloride (Ca/Mg) and 1% BSA) antibody and ADC solutions were applied to the plate. Plates were incubated at room temperature for 2 hours before washed with DPBS with Ca/Mg and 1% BSA. HRP-conjugated secondary antibody was then applied and incubated with cells for 1 hour. Plates were washed with DPBS with Ca/Mg and 1% BSA before being developed with Pico-Chemiluminescent developing kit (Thermal Scientific), and chemiluminescence measurements were performed per manufacturer's instructions. Data plotting and analyses were performed with Microsoft Excel and Graphpad-Prism software.

[4] = target: T1, full-length human Notch3 expressed on …; test: cell-based ELISA, MDA-MB-468 cells; SD 0.046
Experimental: as §1

[5] = target: T1, full-length human Notch3 expressed on …; test: cell-based ELISA, U2OS/hNotch3 cells; SD 0.008
Experimental: as §1

[6] = target: T1, full-length human Notch3 expressed on …; test: cell-based ELISA, HCC2429 cells; SD 0.063
Experimental: as §1

[7] = target: T1, full-length human Notch3 expressed on …; test: cell-based ELISA, MDA-MB-468 cells; SD 0.062
Experimental: as §1

[8] = target: T1, full-length human Notch3 expressed on …; test: cell-based ELISA, U2OS/hNotch3 cells; SD 0.041
Experimental: as §1

[9] = target: T1, full-length human Notch3 expressed on …; test: cell-based ELISA, U2OS/hNotch3 cells
Experimental: (§2) U-2 OS cells stably over-expressing human or mouse full length Notch3 protein on cell surface (hereinafter U2OS/hNotch3 and U2OS/mNotch3, respectively) were plated at 50,000 cells/well in 96 well plates (white opaque, BD/VWR) the day before ELISA assay. On the day of the ELISA, culture media was removed from wells and serially diluted (1:3 in blocking buffer) antibody solutions were applied to the plate. Plates were incubated at room temperature for 2 hours before being washed with PBS-Mg/Ca. HRP-conjugated secondary antibody was then applied and incubated with cells for 1 hour as described above for recombinant protein ELISA. Plates were washed with PBS-Mg/Ca before being developed with Pico-Chemiluminescent developing kit (Thermal Scientific), and chemiluminescence measurements were performed per manufacturer's instructions. Data plotting and analyses were performed with Microsoft Excel and Graphpad-Prism software.

[10] = target: T1, full-length human Notch3 expressed on …; test: cell-based ELISA, HCC2429 cells; SD 0.053
Experimental: as §1

[11] = target: T1, full-length human Notch3 expressed on …; test: cell-based ELISA, MDA-MB-468 cells; SD 0.176
Experimental: as §1

[12] = target: T1, full-length human Notch3 expressed on …; test: cell-based ELISA, U2OS/hNotch3 cells; SD 0.160
Experimental: as §1

[13] = target: T1, full-length human Notch3 expressed on …; test: competition ELISA on U2OS/hNotch3 cells; competitor 0.8 nM biotinylated ch75
Experimental: (§3) 96 well cell culture plates were seeded with U2OS/hNotch3 cells (cell culture plate, Co-star). […] After incubation for 2 hours, the plates were washed, as described above, and HRP-conjugated streptavidin (Southern Biotech) diluted 1:5000 in blocking buffer was applied. After incubation with streptavidin for 30 minutes, the plates were washed again before being developed with TMB solution for 10 minutes. […] Data plotting and analyses were performed with Microsoft Excel and Graphpad-Prism software.

[14] = target: T2, human Notch3 NRR recombinant protein (Notch3 NRR_Avi_His tag) (human); test: SPR (Biacore T100), antibody captured on anti-human IgG-Fc, Notch3 NRR as analyte, 1:1 Langmuir fit
T2 construct: Purified from CHO-PACE cells; the entry includes the C-terminal Avi and His6 tag
T2 chain: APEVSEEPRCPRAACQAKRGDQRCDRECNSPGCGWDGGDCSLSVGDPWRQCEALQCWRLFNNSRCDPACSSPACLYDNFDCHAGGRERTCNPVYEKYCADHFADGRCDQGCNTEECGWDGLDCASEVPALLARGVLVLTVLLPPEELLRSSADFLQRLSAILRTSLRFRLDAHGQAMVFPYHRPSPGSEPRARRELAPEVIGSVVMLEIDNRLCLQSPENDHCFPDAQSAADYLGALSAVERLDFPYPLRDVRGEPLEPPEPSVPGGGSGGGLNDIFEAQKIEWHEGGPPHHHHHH
Experimental: The kinetic constants of the anti-Notch3 NRR interactions were determined by surface plasmon resonance (Biacore® T100, Biacore Inc., Piscataway, N.J.). Flow cells of a CM5 chip were immobilized with approximately 10,000 response units (RU) of anti-human IgG-Fc (Biacore®) in 10 mM Glycine, pH 5.0 at 10 μl/min for 600 seconds. […] Association of four concentrations of human Notch3 NRR recombinant protein (from 3.7-100 nM) and a zero concentration (running buffer) at 100 μl/min were recorded for 3 minutes in TBS with 1 mM CaCl₂. Dissociation of the complexes was measured for 10 minutes. The surface of the chip was regenerated by injecting 3M MgCl₂ with 3 mM EGTA for 60 seconds at 10 μl/min. Curves obtained after subtraction of the reference and buffer signals were fitted to a 1:1 Langmuir binding model with Biacore® T100 Evaluation Software (Biacore®).

[15] = target: T1, full-length human Notch3 expressed on …; test: cell-based ELISA, HCC2429 cells; SD 0.115
Experimental: as §1

[16] = target: T1, full-length human Notch3 expressed on …; test: cell-based ELISA, MDA-MB-468 cells; SD 0.167
Experimental: as §1

[17] = target: T1, full-length human Notch3 expressed on …; test: cell-based ELISA, U2OS/hNotch3 cells; SD 0.057
Experimental: as §1

[18] = target: T2, human Notch3 NRR recombinant protein …; test: ELISA, plate-coated recombinant protein
Experimental: (§4) Purified human or mouse Notch3 NRR recombinant proteins were coated on CoStar hi-bound 96-well ELISA plates in 100 μl of PBS with Mg/Ca at a concentration of 1 μg/ml overnight. The plates were washed with PBS-Mg/Ca and blocked for 1 hour with 1% BSA in PBS-Mg/Ca. Blocking solution was decanted from the plate and 1:3 serial dilutions of antibodies in blocking solutions were applied to the plate. After incubation at room temperature for 1 hour, plates were washed again with PBS-Mg/Can before HRP (horse radish peroxidase)-conjugated secondary antibody diluted (1:20,000) in blocking buffer was applied. When the primary antibody tested was rat IgG, the secondary antibody was goat anti-rat IgG Fc (Bethyl Biotech); and when the primary antibody was human IgG, the secondary antibody was goat anti-human IgG Fc (Southern Biotech).
(§5) After 1 hour incubation with the secondary antibody, plates were washed again, as described above, and TMB substrate solution was added. The developing reaction was allowed for 10 minutes before the stopping solution, 0.18M H₂SO₄, was added.

[19] = target: T3, mouse Notch3 NRR recombinant protein (Notch3 NRR_Avi_His tag) (mouse); test: ELISA, plate-coated recombinant protein
T3 construct: The entry includes the C-terminal Avi and His tag; S1-cleaved heterodimer as for the human protein
T3 chain: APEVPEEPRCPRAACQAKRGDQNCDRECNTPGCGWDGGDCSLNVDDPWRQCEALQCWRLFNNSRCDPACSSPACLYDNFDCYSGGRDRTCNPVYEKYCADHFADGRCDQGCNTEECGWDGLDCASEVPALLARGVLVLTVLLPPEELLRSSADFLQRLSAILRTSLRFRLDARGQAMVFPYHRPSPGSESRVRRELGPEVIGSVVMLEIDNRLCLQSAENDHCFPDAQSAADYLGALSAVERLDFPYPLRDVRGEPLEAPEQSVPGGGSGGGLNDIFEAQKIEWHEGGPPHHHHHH
Experimental: as §4, §5

[20] = target: T4, full-length mouse Notch3 expressed on the cell surface (mouse, UniProt Q61982 40-2318); test: cell-based ELISA, U2OS/mNotch3 cells
T4 construct: whole, on cells; Over-expressed on U-2 OS cells; also called U2OS/mNotch3
Experimental: as §2

[21] = target: T1, full-length human Notch3 expressed on …; test: competition ELISA on U2OS/hNotch3 cells; competitor 0.8 nM biotinylated ch28
Experimental: as §3

[22] = target: T5, Notch 1-3 NRR domain swap chimera: A of Notch1; B, C, hd1, hd2 of Notch3 (row 4, unnamed on the sheet) (human); test: ELISA: NRR-Fc protein coated at 1 ug/ml, antibody applied at 5 ug/ml, goat anti-human Fc-HRP, TMB, O.D. 450 nM
T5 construct: part of the NRR
Experimental: (§6) After 1 hour of incubation, plates were washed with PBS with 0.9 mM Mg²⁺ and Ca²⁺, before secondary goat anti-human Fc antibody conjugated with HRP were applied and incubated on the plates. After washing again, the plates were developed with TMB and the developing reactions were stopped by adding 0.18M H₂SO₄.

[23] = target: T6, Notch 1-3 NRR domain swap chimera: B of Notch1; A, C, hd1, hd2 of Notch3 (row 5, unnamed on the sheet) (human); test: as above
T6 construct: part of the NRR
Experimental: as §6

[24] = target: T7, Notch 1-3 NRR domain swap chimera: hd2 of Notch1; A, B, C, hd1 of Notch3 (row 8, unnamed on the sheet) (human); test: as above
T7 construct: part of the NRR
Experimental: as §6

[25] = target: Notch3-NRR (human); test: as above
Experimental: as §6

[26] = target: T8, human Notch1 NRR-Fc (human, UniProt P46531 1446-1733, limits assumed); test: as above
T8 construct: domain: NRR region; Made in CHO-PACE cells; not shown: human IgG1 Fc fragment
T8 sequence (looked up): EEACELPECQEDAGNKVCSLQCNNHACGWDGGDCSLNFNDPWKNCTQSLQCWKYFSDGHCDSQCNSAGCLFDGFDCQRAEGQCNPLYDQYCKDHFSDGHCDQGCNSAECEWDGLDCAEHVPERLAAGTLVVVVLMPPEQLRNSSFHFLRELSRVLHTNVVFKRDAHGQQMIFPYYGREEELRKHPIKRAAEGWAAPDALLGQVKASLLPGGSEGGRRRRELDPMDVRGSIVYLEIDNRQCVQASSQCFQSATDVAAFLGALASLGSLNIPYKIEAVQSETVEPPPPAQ

T1 sequence (Q9UM47 40-2321): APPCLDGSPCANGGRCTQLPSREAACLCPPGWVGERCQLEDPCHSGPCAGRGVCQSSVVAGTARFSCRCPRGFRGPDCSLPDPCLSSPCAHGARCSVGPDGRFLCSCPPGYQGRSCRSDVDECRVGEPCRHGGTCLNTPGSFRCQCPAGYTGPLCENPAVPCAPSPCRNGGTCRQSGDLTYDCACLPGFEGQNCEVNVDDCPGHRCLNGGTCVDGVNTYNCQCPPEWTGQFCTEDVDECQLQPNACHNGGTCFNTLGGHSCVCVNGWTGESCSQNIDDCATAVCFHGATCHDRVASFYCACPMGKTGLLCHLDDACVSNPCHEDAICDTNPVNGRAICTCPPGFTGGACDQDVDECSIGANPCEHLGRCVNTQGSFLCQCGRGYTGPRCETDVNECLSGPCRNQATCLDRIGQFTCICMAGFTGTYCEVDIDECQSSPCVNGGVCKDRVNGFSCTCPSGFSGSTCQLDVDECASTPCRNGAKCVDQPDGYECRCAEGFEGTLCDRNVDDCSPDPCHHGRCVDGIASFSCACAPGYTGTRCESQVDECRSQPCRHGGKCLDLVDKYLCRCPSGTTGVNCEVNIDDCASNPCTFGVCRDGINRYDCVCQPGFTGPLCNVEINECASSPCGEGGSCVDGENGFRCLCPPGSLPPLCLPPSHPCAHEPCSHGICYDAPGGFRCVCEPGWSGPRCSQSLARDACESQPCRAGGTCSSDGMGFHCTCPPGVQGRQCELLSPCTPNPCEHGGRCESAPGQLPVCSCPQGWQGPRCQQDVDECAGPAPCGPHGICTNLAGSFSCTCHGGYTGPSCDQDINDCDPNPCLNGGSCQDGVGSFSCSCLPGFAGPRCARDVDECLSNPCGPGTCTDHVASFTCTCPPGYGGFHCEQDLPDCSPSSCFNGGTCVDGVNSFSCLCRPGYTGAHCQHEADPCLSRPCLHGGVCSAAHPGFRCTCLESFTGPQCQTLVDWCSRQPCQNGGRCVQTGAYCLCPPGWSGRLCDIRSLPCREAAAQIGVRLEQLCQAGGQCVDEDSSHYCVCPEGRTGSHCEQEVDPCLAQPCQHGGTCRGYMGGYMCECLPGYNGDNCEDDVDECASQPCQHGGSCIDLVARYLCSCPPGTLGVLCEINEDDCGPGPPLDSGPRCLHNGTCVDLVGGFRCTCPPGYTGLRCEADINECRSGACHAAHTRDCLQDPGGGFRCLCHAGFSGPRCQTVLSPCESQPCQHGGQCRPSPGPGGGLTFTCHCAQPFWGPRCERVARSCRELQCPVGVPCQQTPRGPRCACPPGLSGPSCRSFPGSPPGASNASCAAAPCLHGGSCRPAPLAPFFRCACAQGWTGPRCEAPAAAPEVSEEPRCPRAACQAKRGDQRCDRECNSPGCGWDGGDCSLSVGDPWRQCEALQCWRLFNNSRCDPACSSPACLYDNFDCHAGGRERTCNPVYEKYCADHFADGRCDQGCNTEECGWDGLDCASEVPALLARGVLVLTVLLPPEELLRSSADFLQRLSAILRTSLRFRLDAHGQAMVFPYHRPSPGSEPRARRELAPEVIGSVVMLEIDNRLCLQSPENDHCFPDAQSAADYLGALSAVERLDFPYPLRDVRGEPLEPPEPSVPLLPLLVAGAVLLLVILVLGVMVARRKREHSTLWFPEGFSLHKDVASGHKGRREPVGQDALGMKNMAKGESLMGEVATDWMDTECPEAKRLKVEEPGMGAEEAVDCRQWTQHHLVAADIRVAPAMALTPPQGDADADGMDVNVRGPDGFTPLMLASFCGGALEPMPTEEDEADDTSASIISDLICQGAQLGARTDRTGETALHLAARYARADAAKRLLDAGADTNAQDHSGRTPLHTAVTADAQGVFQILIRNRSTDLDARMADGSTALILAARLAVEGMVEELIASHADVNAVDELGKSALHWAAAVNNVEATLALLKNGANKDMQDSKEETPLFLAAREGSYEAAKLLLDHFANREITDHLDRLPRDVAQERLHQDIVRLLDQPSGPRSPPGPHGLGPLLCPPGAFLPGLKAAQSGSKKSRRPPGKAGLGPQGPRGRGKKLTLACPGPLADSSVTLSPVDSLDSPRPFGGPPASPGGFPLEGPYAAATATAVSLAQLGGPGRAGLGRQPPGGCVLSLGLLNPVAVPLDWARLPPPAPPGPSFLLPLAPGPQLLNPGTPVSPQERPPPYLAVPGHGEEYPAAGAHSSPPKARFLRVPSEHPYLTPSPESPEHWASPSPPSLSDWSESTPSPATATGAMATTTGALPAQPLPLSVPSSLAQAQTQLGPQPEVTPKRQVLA
T4 sequence (Q61982 40-2318): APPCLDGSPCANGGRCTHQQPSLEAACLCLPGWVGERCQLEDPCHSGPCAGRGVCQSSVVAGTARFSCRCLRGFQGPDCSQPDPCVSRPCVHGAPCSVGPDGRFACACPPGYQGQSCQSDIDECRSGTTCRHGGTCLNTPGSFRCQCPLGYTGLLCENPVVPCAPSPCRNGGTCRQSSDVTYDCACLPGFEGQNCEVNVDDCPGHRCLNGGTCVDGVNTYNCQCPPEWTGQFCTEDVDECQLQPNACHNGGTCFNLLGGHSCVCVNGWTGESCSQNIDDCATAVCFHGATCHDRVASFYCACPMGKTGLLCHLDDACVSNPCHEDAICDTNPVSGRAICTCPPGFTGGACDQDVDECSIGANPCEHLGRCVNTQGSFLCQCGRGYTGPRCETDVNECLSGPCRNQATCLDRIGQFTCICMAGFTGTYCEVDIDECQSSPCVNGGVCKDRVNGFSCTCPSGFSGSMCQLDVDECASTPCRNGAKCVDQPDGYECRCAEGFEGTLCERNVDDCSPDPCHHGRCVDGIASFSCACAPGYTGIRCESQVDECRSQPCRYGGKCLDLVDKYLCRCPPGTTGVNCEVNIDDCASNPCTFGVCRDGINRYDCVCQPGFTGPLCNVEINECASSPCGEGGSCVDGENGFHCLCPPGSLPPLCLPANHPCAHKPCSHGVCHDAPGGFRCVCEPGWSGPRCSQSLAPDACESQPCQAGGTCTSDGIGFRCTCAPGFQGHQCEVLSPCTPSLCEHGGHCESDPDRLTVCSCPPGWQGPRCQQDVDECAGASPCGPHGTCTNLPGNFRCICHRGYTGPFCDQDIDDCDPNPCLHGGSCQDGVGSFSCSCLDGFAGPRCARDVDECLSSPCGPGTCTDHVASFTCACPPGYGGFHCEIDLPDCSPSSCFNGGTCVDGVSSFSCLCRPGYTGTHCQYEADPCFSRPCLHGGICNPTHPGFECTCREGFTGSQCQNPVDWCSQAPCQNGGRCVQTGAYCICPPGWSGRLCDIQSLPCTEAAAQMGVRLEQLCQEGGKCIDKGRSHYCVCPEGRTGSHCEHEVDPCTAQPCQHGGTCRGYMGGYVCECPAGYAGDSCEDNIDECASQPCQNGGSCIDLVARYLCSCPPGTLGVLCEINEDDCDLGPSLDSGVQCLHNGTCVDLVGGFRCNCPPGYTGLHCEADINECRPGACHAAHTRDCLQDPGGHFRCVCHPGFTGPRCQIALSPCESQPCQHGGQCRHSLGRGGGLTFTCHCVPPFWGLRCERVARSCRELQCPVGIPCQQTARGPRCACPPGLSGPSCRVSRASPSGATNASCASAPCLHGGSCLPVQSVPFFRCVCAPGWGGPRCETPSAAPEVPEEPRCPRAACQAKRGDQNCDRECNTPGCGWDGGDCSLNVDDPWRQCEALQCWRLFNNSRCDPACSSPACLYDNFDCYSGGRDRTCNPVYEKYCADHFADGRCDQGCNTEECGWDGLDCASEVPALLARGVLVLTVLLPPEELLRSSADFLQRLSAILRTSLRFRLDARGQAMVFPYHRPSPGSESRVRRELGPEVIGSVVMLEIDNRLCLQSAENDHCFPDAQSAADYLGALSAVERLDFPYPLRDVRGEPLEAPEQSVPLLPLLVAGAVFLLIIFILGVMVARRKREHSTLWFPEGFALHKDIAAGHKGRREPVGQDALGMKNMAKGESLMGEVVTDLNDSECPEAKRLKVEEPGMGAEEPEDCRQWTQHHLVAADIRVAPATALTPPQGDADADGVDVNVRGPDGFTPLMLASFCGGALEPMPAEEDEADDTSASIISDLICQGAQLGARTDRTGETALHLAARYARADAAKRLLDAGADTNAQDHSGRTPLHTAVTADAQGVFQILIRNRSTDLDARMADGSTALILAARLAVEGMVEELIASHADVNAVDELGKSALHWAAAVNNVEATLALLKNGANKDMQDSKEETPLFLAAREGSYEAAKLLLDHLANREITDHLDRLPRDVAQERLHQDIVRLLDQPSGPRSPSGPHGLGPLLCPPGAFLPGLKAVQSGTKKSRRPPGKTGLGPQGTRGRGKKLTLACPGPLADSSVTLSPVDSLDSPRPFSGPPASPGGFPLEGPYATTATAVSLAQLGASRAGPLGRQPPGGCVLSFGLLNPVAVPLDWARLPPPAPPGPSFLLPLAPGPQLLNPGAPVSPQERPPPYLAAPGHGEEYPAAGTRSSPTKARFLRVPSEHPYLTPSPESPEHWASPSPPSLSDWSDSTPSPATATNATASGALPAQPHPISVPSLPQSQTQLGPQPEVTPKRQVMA

B1: hu28-vc6780 (Notch3-28-v1010-hG1-(C)_mcValCitPABC-#112) (antibody, human IgG1, kappa, V domains shown)
VH: EVQLVESGGGLVQPGGSLRLSCAASGFTFRDYGMTWVRQAPGKGLEWVAYISSGSNYIYYAEAVKGRFTISRDNAKNSLYLQMNSLRAEDTAVYYCARRGPFVLDAWGQGTLVTVSS
VL: DIQMTQSPSSLSASVGDRVTITCKASQSINRYLHWYQQKPGKAPKLLIYNANGLQTGVPSRFSGSGSGTDFTLTISSLQPEDFATYYCLQHNTWPDTFGGGTKVEIKR
modifications: vc6780 linker-payload on cysteine residues after partial reduction; sites not specified
notes: Antibody-drug conjugate of hu28
- IC50 of cytotoxicity (MTS viability), HCC2429 cells, repeat 1 [1]: 148 ng Ab/mL
- IC50 of cytotoxicity (MTS viability), HCC2429 cells, repeat 2 [1]: 2050 ng Ab/mL
- IC50 of cytotoxicity (MTS viability), MDA-MB-468/hNotch3 cells, repeat 1 [1]: 1.3 ng Ab/mL
- IC50 of cytotoxicity (MTS viability), MDA-MB-468/hNotch3 cells, repeat 2 [1]: 3 ng Ab/mL
- IC50 of cytotoxicity (MTS viability), OVCAR3 cells [1]: 17 ng Ab/mL
- IC50 of cytotoxicity, MDA-MB-468/hNotch3 cells, control siRNA [2]: 2 ng Ab/mL
- EC50 [3]: 0.154 nM
- EC50 [4]: 0.242 nM
- EC50 [5]: 0.236 nM

B2: hu75-vc6780 (Notch3-75-v1913-hG1-(C)_mcValCitPABC-#112) (antibody, human IgG1, kappa, V domains shown)
VH: EVQLVESGGGLVQPGGSLRLSCAASGYAFTDYWMTWVRQAPGKGLEWVAEISPNSGGTNFNEKFKGRFTISVDNAKNSLYLQMNSLRAEDTAVYYCARGEIRYNWFAYWGQGTLVTVSS
VL: DIQMTQSPSSLSASVGDRVTITCKASQNVGNNIAWYQQKPGKAPKLLIYYASNRYTGVPSRFSGSGYGTDFTLTISSLQPEDFATYYCQRLYNSPFTFGGGTKVEIKR
modifications: vc6780 linker-payload on cysteine residues after partial reduction; sites not specified
notes: Antibody-drug conjugate of hu75
- IC50 of cytotoxicity (MTS viability), HCC2429 cells, repeat 1 [1]: 214 ng Ab/mL
- IC50 of cytotoxicity (MTS viability), HCC2429 cells, repeat 2 [1]: 630 ng Ab/mL
- IC50 of cytotoxicity (MTS viability), MDA-MB-468/hNotch3 cells, repeat 1 [1]: 26 ng Ab/mL
- IC50 of cytotoxicity (MTS viability), MDA-MB-468/hNotch3 cells, repeat 2 [1]: 25 ng Ab/mL
- IC50 of cytotoxicity (MTS viability), OVCAR3 cells [1]: 254 ng Ab/mL
- IC50 of cytotoxicity, MDA-MB-468/hNotch3 cells, Notch3 siRNA (reduced Notch3 expression) [2]: 7980 ng Ab/mL
- IC50 of cytotoxicity, MDA-MB-468/hNotch3 cells, control siRNA [2]: 17 ng Ab/mL
- EC50 [6]: 0.343 nM
- EC50 [7]: 1.8 nM
- EC50 [8]: 0.723 nM

B3: hu75 (humanized r75 variant VH1.9/VL1.3) (antibody, human IgG1, kappa, V domains shown)
VH: EVQLVESGGGLVQPGGSLRLSCAASGYAFTDYWMTWVRQAPGKGLEWVAEISPNSGGTNFNEKFKGRFTISVDNAKNSLYLQMNSLRAEDTAVYYCARGEIRYNWFAYWGQGTLVTVSS
VL: DIQMTQSPSSLSASVGDRVTITCKASQNVGNNIAWYQQKPGKAPKLLIYYASNRYTGVPSRFSGSGYGTDFTLTISSLQPEDFATYYCQRLYNSPFTFGGGTKVEIKR
notes: Human IgG1/kappa; also called hu75 VH1.9/VL1.3; hu75 VH1.9/V1.3
- EC50 [9]: 0.22 nM
- EC50 [10]: 0.335 nM
- EC50 [11]: 1.28 nM
- EC50 [12]: 0.585 nM
- EC50 [13]: 1.7 nM
- Kd [14]: 9.76 nM

B4: hu75-vc0101 (Notch3-75-v1913-hG1-(C)_mcValCitPABC-#54) (antibody, human IgG1, kappa, V domains shown)
VH: EVQLVESGGGLVQPGGSLRLSCAASGYAFTDYWMTWVRQAPGKGLEWVAEISPNSGGTNFNEKFKGRFTISVDNAKNSLYLQMNSLRAEDTAVYYCARGEIRYNWFAYWGQGTLVTVSS
VL: DIQMTQSPSSLSASVGDRVTITCKASQNVGNNIAWYQQKPGKAPKLLIYYASNRYTGVPSRFSGSGYGTDFTLTISSLQPEDFATYYCQRLYNSPFTFGGGTKVEIKR
modifications: vc0101 linker-payload on cysteine residues after partial reduction; sites not specified
notes: as for B2
- IC50 of cytotoxicity (MTS viability), HCC2429 cells, repeat 1 [1]: 611 ng Ab/mL
- IC50 of cytotoxicity (MTS viability), HCC2429 cells, repeat 2 [1]: 3300 ng Ab/mL
- IC50 of cytotoxicity (MTS viability), MDA-MB-468/hNotch3 cells, repeat 1 [1]: 37 ng Ab/mL
- IC50 of cytotoxicity (MTS viability), MDA-MB-468/hNotch3 cells, repeat 2 [1]: 36 ng Ab/mL
- IC50 of cytotoxicity (MTS viability), MDA-MB-468 cells [1]: 7000 ng Ab/mL
- IC50 of cytotoxicity (MTS viability), OVCAR3 cells [1]: 515 ng Ab/mL
- IC50 of cytotoxicity (MTS viability), U2OS/hNotch3 cells [1]: 523 ng Ab/mL
- IC50 of cytotoxicity, MDA-MB-468/hNotch3 cells, Notch3 siRNA (reduced Notch3 expression) [2]: 3190 ng Ab/mL
- IC50 of cytotoxicity, MDA-MB-468/hNotch3 cells, control siRNA [2]: 29 ng Ab/mL
- EC50 [15]: 0.427 nM
- EC50 [16]: 2.02 nM
- EC50 [17]: 0.798 nM

B5: rat-human chimeric antibody 28 (ch28) (antibody, V domains shown)
VH: EVQLVESGGGLVQPGRSLTLSCVASGFTFRDYGMTWIRQAPGKGLTWVAYISSGSNYIYYAEAVKGRFTISRDNAKNTLYLQMTSLRSEDTALYFCTRRGPFVLDAWGQGASVTVSS
VL: DIQMTQSPSFLSASVGDRVTINCKASQSINRYLHWFQQKLGEAPKLLIYNANGLQTGIPSRFSGSGSGTDFTLTISSLQSEDVATYFCLQHNTWPDTFGAGTKLELK
notes: also called ch28-hIgG1; ch28-hulgG1
- EC50 [18]: ≤ 1 nM
- EC50 [19]: ≤ 1 nM
- EC50 [9]: 0.098 nM
- EC50 [20]: 0.13 nM
- EC50 [21]: 3 nM
- Kd [14]: 0.61 nM
- koff [14]: 0.000249 s⁻¹
- kon [14]: 409000 M⁻¹ s⁻¹
- O.D. 450 nM (ELISA, relative binding capacity) [22]: 0.15
- O.D. 450 nM (ELISA, relative binding capacity) [23]: 0.54
- O.D. 450 nM (ELISA, relative binding capacity) [24]: 0.5
- O.D. 450 nM (ELISA, relative binding capacity) [25]: 2.06
- binding result [26]: no binding (tested: 5 ug/ml)
